This assay concerns the target protective antigen (PA) prepore (Bacillus anthracis V770-NP1-R (ATCC …, UniProt P13423)). The experiment in a line: cryo-EM structure.

Sequence of protective antigen (PA) prepore (Bacillus anthracis V770-NP1-R (P13423 whole entry, looked up): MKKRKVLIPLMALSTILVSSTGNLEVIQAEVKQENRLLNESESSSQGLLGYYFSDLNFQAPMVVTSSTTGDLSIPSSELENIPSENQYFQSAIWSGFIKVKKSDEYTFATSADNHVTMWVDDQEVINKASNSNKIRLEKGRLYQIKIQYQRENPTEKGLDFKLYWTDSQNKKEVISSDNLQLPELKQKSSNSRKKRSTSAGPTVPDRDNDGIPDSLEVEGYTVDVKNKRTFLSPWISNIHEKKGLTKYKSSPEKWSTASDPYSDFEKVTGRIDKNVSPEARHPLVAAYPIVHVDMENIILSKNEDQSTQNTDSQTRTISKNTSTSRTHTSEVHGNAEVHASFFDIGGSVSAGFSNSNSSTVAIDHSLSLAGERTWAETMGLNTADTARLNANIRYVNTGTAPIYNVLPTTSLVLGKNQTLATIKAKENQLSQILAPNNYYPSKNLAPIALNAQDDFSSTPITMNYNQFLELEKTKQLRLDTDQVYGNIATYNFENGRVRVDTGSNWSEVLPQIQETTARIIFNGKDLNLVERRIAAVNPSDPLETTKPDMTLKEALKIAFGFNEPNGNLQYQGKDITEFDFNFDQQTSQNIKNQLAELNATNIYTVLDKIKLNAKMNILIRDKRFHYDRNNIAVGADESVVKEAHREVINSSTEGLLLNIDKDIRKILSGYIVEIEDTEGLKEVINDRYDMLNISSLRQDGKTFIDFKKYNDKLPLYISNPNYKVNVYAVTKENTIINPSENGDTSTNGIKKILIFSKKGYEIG

B1: cAb29 Fab (Fab, V domains shown)
VH: QVQLQQSGAELVKPGASVKMSCKASGYIFTNYNMHWVQQTPGQGLEWIGAIYPRTGDTSYNQKFKGKATLTADKSSSTAYMQLSSLTSEDSAVYYCARDGFAYWGQG
VL: DIQMTQTTSSLSASLGDRVTISCRASQDISNYLNWYQQKPDGTVKLLIYYTSRLHSEVPSRFSGSGSGTDYSLTISNLEEEDIATYFCQQGKTLPWTFGGG
For the molecule B1, the binding result was “binds”.
